The source of these data is paper PMC4249942 (Biochemistry, 2012).

Changes are numbered by the printed parent chain. In names and notes the source's numbering stands.

Series [1] has as its target T1, PerB (Caulobacter vibrioides, UniProt O85353). The series is described as follows: X-ray crystal structure, […] Å. Type of series: binding.
Series [2] has as its target T1, PerB. In words: HPLC, ESI-MS and 1H NMR of the product. Type of series: biochemical. The conditions noted are these: acetyl CoA 1 mM, HEPES pH 7.5, 10 mM MgCl2, room temperature.
Substrate in series [3]: CC(=O)SCCNC(=O)CCNC(=O)[C@H](O)C(C)(C)COP(=O)(O)OP(=O)(O)OC[C@H]1O[C@@H](n2cnc3c(N)ncnc32)[C@H](O)[C@@H]1OP(=O)(O)O
In words: discontinuous HPLC assay. Format: biochemical, Caulobacter vibrioides. Conditions: pH 8.0, 25 °C, GDP-perosamine co-substrate.

Substrate in series [4]: C[C@H]1O[C@H](OP(=O)(O)OP(=O)(O)OC[C@H]2O[C@@H](n3cnc4c(=O)[nH]c(N)nc43)[C@H](O)[C@@H]2O)[C@@H](O)[C@@H](O)[C@@H]1N
The series is described as follows: discontinuous HPLC assay. Type of series: biochemical, Caulobacter vibrioides. The conditions noted are these: pH 8.0, 25 °C, acetyl CoA co-substrate.

As for `CC(C)(COP(=O)(O)OP(=O)(O)OC[C@H]1O[C@@H](n2cnc3c(N)ncnc32)[C@H](O)[C@@H]1OP(=O)(O)O)[C@@H](O)C(=O)NCCC(=O)NCCS` [CoA], the “X-ray crystal structure, 1.0 Å” value at PerB [1] (with GDP-perosamine) was “The first was that of the enzyme with bound CoA and GDP-perosamine”.

With `C[C@H]1O[C@H](OP(=O)(O)OP(=O)(O)OC[C@H]2O[C@@H](n3cnc4c(=O)[nH]c(N)nc43)[C@H](O)[C@@H]2O)C(O)CC1N` (some centres unmarked) [GDP-3-deoxyperosamine], the “HPLC, ESI-MS and 1H NMR of the product” value on PerB [2] is reported as “Using GDP-3-deoxyperosamine, we were able to, indeed, show that PerB produces an acetylated form”.

Regarding `CC(=O)N[C@H]1[C@H](O)[C@H](O)[C@@H](OP(=O)(O)OP(=O)(O)OC[C@H]2O[C@@H](n3cnc4c(=O)[nH]c(N)nc43)[C@H](O)[C@@H]2O)O[C@@H]1C` [GDP-N-acetylperosamine], the “X-ray crystal structure, 1.0 Å” value at PerB [1] (with CoA, formed by turnover in the crystal) was “The enzyme turned over, and CoA and GDP-N-acetylperosamine were left bound in the active site”.

B1: PerB (Caulobacter vibrioides) (protein)
chain: MSASLAIGGVVIIGGGGHAKVVIESLRACGETVAAIVDADPTRRAVLGVPVVGDDLALPMLREQGLSRLFVAIGDNRLRQKLGRKARDHGFSLVNAIHPSAVVSPSVRLGEGVAVMAGVAINADSWIGDLAIINTGAVVDHDCRLGAACHLGPASALAGGVSVGERAFLGVGARVIPGVTIGADTIVGAGGVVVRDLPDSVLAIGVPAKIKGDRS
For B1, the results for the Km in “discontinuous HPLC assay [3]” and in the series “discontinuous HPLC assay [4]” were 150 ± 20 µM and 87 ± 11 µM, respectively.

B2: PerB (Caulobacter vibrioides; D142N) (protein)
chain: B1 chain with D142N
On to B2, for which the Km – broadly, the substrate concentration at which the rate is half of its maximum – in the series “discontinuous HPLC assay [3]” worked out at 59 ± 7 µM; in “discontinuous HPLC assay [4]” it was 110 ± 10 µM.

B3: PerB (Caulobacter vibrioides; H141A) (protein)
chain: B1 chain with H141A
Regarding B3, the figures for the Km in “discontinuous HPLC assay [3]” and in the series “discontinuous HPLC assay [4]” were 110 ± 10 µM and 200 ± 10 µM, respectively.

B4: PerB (Caulobacter vibrioides; H141N) (protein)
chain: B1 chain with H141N
For B4, the Km in “discontinuous HPLC assay [3]” came to 94 ± 17 µM; in the series “discontinuous HPLC assay [4]”, 150 ± 10 µM.
